Source: article PMC5785501, “Crystal structure of lipid A disaccharide synthase LpxB from Escherichia coli” (Nature Communications, 2018)

How the values were obtained:
[1] = biological target: the molecule itself; assay: crystal structure; X-ray, one molecule in the asymmetric unit, dimer by crystal symmetry; LiCl, PEG 4000, 0.1 M Tris-HCl pH 8.6; apo and soaked with 10 mM UDP-GlcNAc
[2] = biological target: the molecule itself; assay: AUC; LpxB6S at 1 mg/ml, 5,000-16,000 r.p.m. for 10 h each, absorbance at 280 nm; mass modelled

| Protein | binding result [1] | stoichiometry N [2] |
| --- | --- | --- |
| LpxB7S (LpxB6S with M207S) (enzyme, Escherichia coli, UniProt P10441 1-382, looked up, lipid A disaccharide synthase LpxB, Escherichia coli; Native LpxB7S, apo and soaked with UDP-GlcNAc (UDP seen); also called LpxB6SM207S; source: E. coli BL21 (DE3), purified (Ni-NTA, Ulp1 cleavage, Superdex 200); not shown: His tag, N-terminal, cleaved; SUMO, N-terminal, cleaved) MTEQRPLTIALVAGETSGDILGAGLIRALKEHVPNARFVGVAGPRMQAEGCEAWYEMEELAVMGISESSGRSRRSSHIRADLTKRFGELKPDVFVGIDAPDFNITLEGNLKKQGIKTIHYVSPSVWAWRQKRVFKIGRATDLVLAFLPFEKAFYDKYNVPCRFIGHTMADAMPLDPDKNAARDVLGIPHDAHCLALLPGSRGAEVESLSADFLKTAQLLRQTYPDLEIVVPLVNAKRREQFERIKAEVAPDLSVHLLDGMGREAMVASDAALLASGTAALECMLAKCPMVVGYRMKPFTFWLAKRLVKTDYVSLPNLLAGRELVKELLQEECEPQKLAAALLPLLANGKTSHAMHDTFRELHQQIRCNADEQAAQAVLELAQ | binds | – |
| LpxB6S (E. coli lipid A disaccharide synthase LpxB with V66S, V68S, L69S, L72S, L75S, L76S) (enzyme, Escherichia coli, UniProt P10441 1-382, looked up, lipid A disaccharide synthase LpxB, Escherichia coli; residues up to 382 named in the structure; the gene was cloned from strain BL21; also called soluble LpxB; solubilized LpxB; source: E. coli BL21 (DE3), purified (Ni-NTA, Ulp1 cleavage, Superdex 200); not shown: His tag, N-terminal, cleaved; SUMO, N-terminal, cleaved) MTEQRPLTIALVAGETSGDILGAGLIRALKEHVPNARFVGVAGPRMQAEGCEAWYEMEELAVMGISESSGRSRRSSHIRADLTKRFGELKPDVFVGIDAPDFNITLEGNLKKQGIKTIHYVSPSVWAWRQKRVFKIGRATDLVLAFLPFEKAFYDKYNVPCRFIGHTMADAMPLDPDKNAARDVLGIPHDAHCLALLPGSRGAEVEMLSADFLKTAQLLRQTYPDLEIVVPLVNAKRREQFERIKAEVAPDLSVHLLDGMGREAMVASDAALLASGTAALECMLAKCPMVVGYRMKPFTFWLAKRLVKTDYVSLPNLLAGRELVKELLQEECEPQKLAAALLPLLANGKTSHAMHDTFRELHQQIRCNADEQAAQAVLELAQ | – | 2 |
